{"source": "the supplement of paper PMC11811203", "parents": {"B1": {"name": "THAP1; numbered along this chain (parent)", "chain": "MVQSCSAYGCKNRYDKDKPVSFHKFPLTRPSLCKEWEAAVRRKNFKPTKYSSICSEHFTPDCFKRECNNKLLKENAVPTIFLCTEPHDKKEDLLEPQEQLPPPPLPPPVSQVDAAIGLLMPPLQTPVNLSVFCDHNYTVEDTMHQRKRIHQLEQQVEKLRKKLKTAQQRCRRQERQLEKLKEVVHFQKEKDDVSERGYVILPNDYFEIVEVPA"}}, "data": [{"variants_of": "B1", "assay": "THAP1 transcriptional activity (GFP+/GFP- enrichment relative to wild-type constructs) (ratio to WT); higher = more THAP1 activity (PSMB5 reporter activation)", "settings": "with PSMB5 promoter-GFP reporter", "summary_of_the_method": "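In duplicate, a lentivirus-delivered library with every residue from 2–213 of human THAP1 changed to all 20 amino acids was introduced at MOI ~0.3 into THAP1-knockout HEK-293T cells carrying endogenous PSMB5 tagged by mClover3 knock-in. Five days on, BFP+ cells were binned as GFP-dim or GFP-bright, and Illumina sequencing of genomic DNA amplicons counted each variant. Activity is the bright/dim read fold change, averaged over replicates and scaled to the mean of wild-type synonymous constructs.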", "values": [{"variant": "S130V", "THAP1 transcriptional activity": 0.196}, {"variant": "S130E", "THAP1 transcriptional activity": 0.224}, {"variant": "K179V", "THAP1 transcriptional activity": 0.388}, {"variant": "V2E", "THAP1 transcriptional activity": 0.154}, {"variant": "V193H", "THAP1 transcriptional activity": 0.804}, {"variant": "V193E", "THAP1 transcriptional activity": 0.835}, {"variant": "V193D", "THAP1 transcriptional activity": 0.999}, {"variant": "L27S", "THAP1 transcriptional activity": 0.183}, {"variant": "K24S", "THAP1 transcriptional activity": 0.088}, {"variant": "E91T", "THAP1 transcriptional activity": 0.885}, {"variant": "E91G", "THAP1 transcriptional activity": 1.01}, {"variant": "P106W", "THAP1 transcriptional activity": 0.703}, {"variant": "P106H", "THAP1 transcriptional activity": 0.72}, {"variant": "L159G", "THAP1 transcriptional activity": 0.147}, {"variant": "L71H", "THAP1 transcriptional activity": 0.403}, {"variant": "P26V", "THAP1 transcriptional activity": 0.127}, {"variant": "P26W", "THAP1 transcriptional activity": 0.0853}, {"variant": "K162L", "THAP1 transcriptional activity": 0.417}, {"variant": "D17R", "THAP1 transcriptional activity": 1.11}, {"variant": "D17K", "THAP1 transcriptional activity": 1.31}, {"variant": "R160P", "THAP1 transcriptional activity": 0.171}, {"variant": "S4R", "THAP1 transcriptional activity": 0.164}, {"variant": "S4P", "THAP1 transcriptional activity": 0.142}, {"variant": "G117P", "THAP1 transcriptional activity": 1.14}, {"variant": "P86E", "THAP1 transcriptional activity": 2.07}, {"variant": "P86H", "THAP1 transcriptional activity": 0.865}, {"variant": "P86N", "THAP1 transcriptional activity": 0.592}, {"variant": "T125A", "THAP1 transcriptional activity": 1.2}, {"variant": "P104F", "THAP1 transcriptional activity": 0.865}, {"variant": "P104C", "THAP1 transcriptional activity": 0.986}, {"variant": "E189N", "THAP1 transcriptional activity": 0.878}, {"variant": "E189W", "THAP1 transcriptional activity": 1.16}, {"variant": "E189S", "THAP1 transcriptional activity": 1.03}, {"variant": "P60Y", "THAP1 transcriptional activity": 0.259}, {"variant": "H57F", "THAP1 transcriptional activity": 0.126}, {"variant": "P202Q", "THAP1 transcriptional activity": 0.911}, {"variant": "R172F", "THAP1 transcriptional activity": 0.247}, {"variant": "R172N", "THAP1 transcriptional activity": 0.41}, {"variant": "R172D", "THAP1 transcriptional activity": 0.201}, {"variant": "K16N", "THAP1 transcriptional activity": 0.0777}, {"variant": "V183H", "THAP1 transcriptional activity": 0.519}, {"variant": "V183F", "THAP1 transcriptional activity": 0.721}, {"variant": "K89N", "THAP1 transcriptional activity": 1.86}, {"variant": "K89D", "THAP1 transcriptional activity": 1.33}, {"variant": "K89E", "THAP1 transcriptional activity": 1.6}, {"variant": "V131H", "THAP1 transcriptional activity": 0.401}, {"variant": "V131W", "THAP1 transcriptional activity": 0.261}, {"variant": "L93C", "THAP1 transcriptional activity": 1.36}, {"variant": "K188M", "THAP1 transcriptional activity": 0.605}, {"variant": "K73Q", "THAP1 transcriptional activity": 0.273}, {"variant": "K73C", "THAP1 transcriptional activity": 0.395}, {"variant": "A166G", "THAP1 transcriptional activity": 0.258}, {"variant": "Q155P", "THAP1 transcriptional activity": 0.175}, {"variant": "Q155V", "THAP1 transcriptional activity": 0.773}, {"variant": "D204W", "THAP1 transcriptional activity": 0.525}, {"variant": "D204Y", "THAP1 transcriptional activity": 0.63}, {"variant": "Q3A", "THAP1 transcriptional activity": 0.849}, {"variant": "Q3G", "THAP1 transcriptional activity": 0.159}, {"variant": "Q3I", "THAP1 transcriptional activity": 0.678}, {"variant": "I208N", "THAP1 transcriptional activity": 0.926}, {"variant": "V20P", "THAP1 transcriptional activity": 0.101}, {"variant": "C5G", "THAP1 transcriptional activity": 0.131}, {"variant": "C5I", "THAP1 transcriptional activity": 0.0585}, {"variant": "V127F", "THAP1 transcriptional activity": 0.642}, {"variant": "Q154E", "THAP1 transcriptional activity": 0.776}, {"variant": "T84G", "THAP1 transcriptional activity": 0.785}, {"variant": "T84L", "THAP1 transcriptional activity": 1.48}, {"variant": "V209C", "THAP1 transcriptional activity": 0.679}, {"variant": "V209N", "THAP1 transcriptional activity": 0.716}, {"variant": "V209K", "THAP1 transcriptional activity": 0.98}, {"variant": "R29P", "THAP1 transcriptional activity": 0.135}, {"variant": "S51C", "THAP1 transcriptional activity": 0.128}, {"variant": "S51K", "THAP1 transcriptional activity": 0.121}, {"variant": "S51L", "THAP1 transcriptional activity": 0.111}, {"variant": "R42C", "THAP1 transcriptional activity": 0.114}, {"variant": "R42E", "THAP1 transcriptional activity": 0.118}, {"variant": "F25W", "THAP1 transcriptional activity": 0.156}, {"variant": "F25N", "THAP1 transcriptional activity": 0.108}, {"variant": "H87C", "THAP1 transcriptional activity": 1.84}, {"variant": "V139D", "THAP1 transcriptional activity": 0.0939}, {"variant": "V139T", "THAP1 transcriptional activity": 0.34}, {"variant": "K11R", "THAP1 transcriptional activity": 0.771}, {"variant": "K11E", "THAP1 transcriptional activity": 0.121}, {"variant": "Q173R", "THAP1 transcriptional activity": 0.58}, {"variant": "P126F", "THAP1 transcriptional activity": 0.178}, {"variant": "I149G", "THAP1 transcriptional activity": 0.197}, {"variant": "I149Q", "THAP1 transcriptional activity": 0.327}, {"variant": "K49T", "THAP1 transcriptional activity": 0.138}, {"variant": "K49Y", "THAP1 transcriptional activity": 0.0951}, {"variant": "E195Y", "THAP1 transcriptional activity": 0.588}, {"variant": "P19E", "THAP1 transcriptional activity": 0.528}, {"variant": "P108W", "THAP1 transcriptional activity": 0.601}, {"variant": "P121R", "THAP1 transcriptional activity": 0.501}, {"variant": "P121Y", "THAP1 transcriptional activity": 0.185}, {"variant": "P121D", "THAP1 transcriptional activity": 0.48}, {"variant": "D134N", "THAP1 transcriptional activity": 0.121}, {"variant": "L100D", "THAP1 transcriptional activity": 1.66}, {"variant": "L100K", "THAP1 transcriptional activity": 1.18}, {"variant": "L100V", "THAP1 transcriptional activity": 1.84}, {"variant": "L100H", "THAP1 transcriptional activity": 0.606}, {"variant": "E66I", "THAP1 transcriptional activity": 0.457}, {"variant": "E66W", "THAP1 transcriptional activity": 1.25}, {"variant": "E66F", "THAP1 transcriptional activity": 0.996}, {"variant": "T28G", "THAP1 transcriptional activity": 0.843}, {"variant": "H150R", "THAP1 transcriptional activity": 1.19}, {"variant": "H150Q", "THAP1 transcriptional activity": 1.21}, {"variant": "D113R", "THAP1 transcriptional activity": 0.285}, {"variant": "Q145G", "THAP1 transcriptional activity": 0.569}, {"variant": "I80M", "THAP1 transcriptional activity": 0.484}, {"variant": "L32C", "THAP1 transcriptional activity": 0.199}, {"variant": "L32S", "THAP1 transcriptional activity": 0.21}, {"variant": "L32N", "THAP1 transcriptional activity": 0.173}, {"variant": "L32W", "THAP1 transcriptional activity": 0.161}, {"variant": "L32D", "THAP1 transcriptional activity": 0.155}, {"variant": "L32P", "THAP1 transcriptional activity": 0.113}, {"variant": "V112R", "THAP1 transcriptional activity": 0.921}, {"variant": "V112D", "THAP1 transcriptional activity": 0.804}, {"variant": "A7F", "THAP1 transcriptional activity": 0.19}, {"variant": "A76Y", "THAP1 transcriptional activity": 0.191}, {"variant": "A76M", "THAP1 transcriptional activity": 0.215}, {"variant": "T165Y", "THAP1 transcriptional activity": 0.379}, {"variant": "T165V", "THAP1 transcriptional activity": 0.976}, {"variant": "T165D", "THAP1 transcriptional activity": 0.416}, {"variant": "T59L", "THAP1 transcriptional activity": 0.372}, {"variant": "T59I", "THAP1 transcriptional activity": 0.147}, {"variant": "T59W", "THAP1 transcriptional activity": 0.0856}, {"variant": "C54P", "THAP1 transcriptional activity": 0.234}, {"variant": "C54I", "THAP1 transcriptional activity": 0.0624}, {"variant": "R65V", "THAP1 transcriptional activity": 0.559}, {"variant": "R65W", "THAP1 transcriptional activity": 0.212}, {"variant": "R65Y", "THAP1 transcriptional activity": 0.369}, {"variant": "P102N", "THAP1 transcriptional activity": 1.12}, {"variant": "P102S", "THAP1 transcriptional activity": 1.09}, {"variant": "P102G", "THAP1 transcriptional activity": 2.33}, {"variant": "P102A", "THAP1 transcriptional activity": 1.01}, {"variant": "F58C", "THAP1 transcriptional activity": 0.0689}, {"variant": "L129C", "THAP1 transcriptional activity": 0.646}, {"variant": "L123E", "THAP1 transcriptional activity": 1.45}, {"variant": "L123S", "THAP1 transcriptional activity": 0.637}, {"variant": "L123Y", "THAP1 transcriptional activity": 0.693}, {"variant": "L123V", "THAP1 transcriptional activity": 1.01}, {"variant": "K18Y", "THAP1 transcriptional activity": 0.142}, {"variant": "K18P", "THAP1 transcriptional activity": 0.0831}, {"variant": "K18G", "THAP1 transcriptional activity": 0.258}, {"variant": "A213N", "THAP1 transcriptional activity": 1.27}, {"variant": "V211W", "THAP1 transcriptional activity": 0.56}, {"variant": "V211Y", "THAP1 transcriptional activity": 0.843}, {"variant": "E37P", "THAP1 transcriptional activity": 0.245}, {"variant": "R169P", "THAP1 transcriptional activity": 0.132}, {"variant": "R169L", "THAP1 transcriptional activity": 0.45}, {"variant": "V184A", "THAP1 transcriptional activity": 1.55}, {"variant": "V184G", "THAP1 transcriptional activity": 1.29}, {"variant": "M120C", "THAP1 transcriptional activity": 0.909}, {"variant": "M120T", "THAP1 transcriptional activity": 1.85}, {"variant": "R41C", "THAP1 transcriptional activity": 0.763}, {"variant": "R41E", "THAP1 transcriptional activity": 0.197}, {"variant": "R41F", "THAP1 transcriptional activity": 0.233}, {"variant": "L119Y", "THAP1 transcriptional activity": 0.443}, {"variant": "L119W", "THAP1 transcriptional activity": 0.533}, {"variant": "V77N", "THAP1 transcriptional activity": 0.195}, {"variant": "V77C", "THAP1 transcriptional activity": 0.434}, {"variant": "V77L", "THAP1 transcriptional activity": 0.547}, {"variant": "E85G", "THAP1 transcriptional activity": 1.14}, {"variant": "E85I", "THAP1 transcriptional activity": 1.04}, {"variant": "Y14F", "THAP1 transcriptional activity": 0.5}, {"variant": "Y14T", "THAP1 transcriptional activity": 0.0786}, {"variant": "Q176L", "THAP1 transcriptional activity": 0.707}]}]}
